Results from PMC1084328 (Nucleic Acids Research, 2005).
Read-outs that look alike come from different tables or passages of the source.

Columns and labels:
[1] = target: T1, RecN (Bacillus subtilis, UniProt P17894); assay: EMSA, nucleotide-dependent RecN-ssDNA complex; assay type: binding
T1 sequence (P17894 1-576): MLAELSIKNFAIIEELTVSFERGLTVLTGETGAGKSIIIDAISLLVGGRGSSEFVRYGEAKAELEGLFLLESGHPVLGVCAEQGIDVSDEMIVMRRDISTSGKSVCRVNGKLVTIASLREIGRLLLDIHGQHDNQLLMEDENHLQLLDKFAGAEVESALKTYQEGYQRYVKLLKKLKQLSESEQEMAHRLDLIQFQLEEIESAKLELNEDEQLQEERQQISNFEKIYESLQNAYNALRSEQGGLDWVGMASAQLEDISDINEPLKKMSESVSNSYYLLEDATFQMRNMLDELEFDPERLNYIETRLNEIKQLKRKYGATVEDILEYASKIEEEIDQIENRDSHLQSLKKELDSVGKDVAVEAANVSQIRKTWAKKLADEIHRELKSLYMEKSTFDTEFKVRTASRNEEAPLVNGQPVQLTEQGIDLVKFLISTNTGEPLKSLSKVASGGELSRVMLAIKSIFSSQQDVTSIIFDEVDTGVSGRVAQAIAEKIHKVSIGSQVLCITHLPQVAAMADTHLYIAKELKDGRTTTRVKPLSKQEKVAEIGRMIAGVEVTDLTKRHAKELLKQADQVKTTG

[2] = target: T2, RecN (Bacillus subtilis, UniProt P17894 1-576); assay: EMSA
T2 sequence: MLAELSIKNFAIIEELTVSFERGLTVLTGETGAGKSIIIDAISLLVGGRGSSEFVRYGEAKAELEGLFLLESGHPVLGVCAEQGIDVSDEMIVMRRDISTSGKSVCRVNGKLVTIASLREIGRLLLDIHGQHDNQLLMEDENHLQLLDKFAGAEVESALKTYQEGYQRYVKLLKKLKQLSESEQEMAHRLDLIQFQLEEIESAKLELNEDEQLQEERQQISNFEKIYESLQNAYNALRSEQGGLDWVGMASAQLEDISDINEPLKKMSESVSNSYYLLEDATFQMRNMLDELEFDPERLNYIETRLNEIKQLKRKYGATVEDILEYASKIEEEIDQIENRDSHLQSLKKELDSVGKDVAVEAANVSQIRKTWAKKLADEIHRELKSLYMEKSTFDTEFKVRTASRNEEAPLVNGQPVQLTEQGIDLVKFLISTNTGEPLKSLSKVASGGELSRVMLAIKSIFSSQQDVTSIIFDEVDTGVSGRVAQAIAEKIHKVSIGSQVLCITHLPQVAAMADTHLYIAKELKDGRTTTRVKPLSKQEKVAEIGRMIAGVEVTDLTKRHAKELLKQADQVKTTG

[3] = target: T3, RecN, high-S gradient fraction 1 (presumed octamer) (Bacillus subtilis, UniProt P17894 1-576); assay: EMSA
T3 sequence: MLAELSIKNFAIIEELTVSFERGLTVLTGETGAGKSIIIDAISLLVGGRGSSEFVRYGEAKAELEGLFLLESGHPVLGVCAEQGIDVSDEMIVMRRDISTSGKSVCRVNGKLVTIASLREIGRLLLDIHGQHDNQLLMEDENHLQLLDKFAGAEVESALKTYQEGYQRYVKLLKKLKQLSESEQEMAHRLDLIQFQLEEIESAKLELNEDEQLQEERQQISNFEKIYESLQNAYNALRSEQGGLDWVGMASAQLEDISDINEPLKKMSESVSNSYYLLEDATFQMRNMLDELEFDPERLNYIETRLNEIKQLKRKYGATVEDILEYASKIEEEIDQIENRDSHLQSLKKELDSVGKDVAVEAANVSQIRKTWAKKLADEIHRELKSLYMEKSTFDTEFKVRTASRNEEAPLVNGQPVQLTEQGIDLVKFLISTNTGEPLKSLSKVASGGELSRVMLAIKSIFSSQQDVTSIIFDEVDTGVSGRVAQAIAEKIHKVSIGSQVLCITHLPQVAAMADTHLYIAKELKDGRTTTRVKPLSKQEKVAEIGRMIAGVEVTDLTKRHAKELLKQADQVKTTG

[4] = target: T2, RecN; assay: EMSA; remark: listed apart in the source
[5] = target: T2, RecN; assay: EMSA; remark: listed apart in the source

For `Nc1ncnc2c1ncn2[C@@H]1O[C@H](COP(=O)(O)OP(=O)(O)OP(O)(O)=S)[C@@H](O)[C@H]1O` [ATPγS], the “EMSA, nucleotide-dependent RecN-ssDNA complex (CII/CIII) assembly” value ([1]; weakly hydrolysable analogue, ssDNA60, 2 mM MgCl2, pH 7.5, 37 °C) was “weakly hydrolysable analogue (ATPγS) present, CII and CIII formation was observed”.

With `Nc1ncnc2c1ncn2[C@H]1C[C@H](O)[C@@H](COP(=O)(O)OP(=O)(O)OP(=O)(O)O)O1` [dATP] the “EMSA, nucleotide-dependent RecN-ssDNA complex (CII/CIII) assembly” value ([1]; labelled ssDNA60 1 nM, RecN 10 nM, 2 mM MgCl2, pH 7.5, 2% PEG-6000, 37 °C, dATP 1 mM) was “also when ADP or dATP was present CIII and CII were formed”.

B1: ssDNA15 (ssDNA)
DNA: CTCCTATTATGCTCA
B1: no binding [2].

B2: ssDNA60 (ssDNA)
DNA: CTCCTATTATGCTCAACTTAAATGACCTACTCTATAAAGCTATAGTACTGCTATCTAATC
B2: binds [3]; binds [4].

B3: dsDNA60 (dsDNA)
DNA 1: CTCCTATTATGCTCAACTTAAATGACCTACTCTATAAAGCTATAGTACTGCTATCTAATC
DNA 2: GATTAGATAGCAGTACTATAGCTTTATAGAGTAGGTCATTTAAGTTGAGCATAATAGGAG
B3: no binding [5].
